Laboratory results: patent US11643691B2, “Predictive biomarkers for cancer immunotherapy and methods of using same” (Duke University, priority 2018, dated 2023)

How the values were obtained:
[1] = tested on: bone-marrow-derived DCs (BMDCs); assay: Extracellular lactate assay (surrogate for glycolysis); type: cell-based, Murine; settings: BMDC culture media, 0 to 48 hr
Description: Lactate measurement: L-Lactate was measured by lactate dehydrogenase conversion of L-lactate+NAD+ to pyruvate+NADH following treatment with […] (Pesce et al., 1975). Lactate standards and samples were read at NADH specific absorbance 340 nm. For lactate measurement in Wnt5a time course, BMDCs were seeded in a 48-well plate at 1 million cell per well. BMDCs were treated with 100 ng/ml of recombinant Wnt5a from 0 to 48 hours. For extracellular lactate determination, 0.5 ml of supernatant media was collected directly from the culture, deproteinized by polyethylene glycol precipitation (25% w/v PEG-8000, sigma), and clarified by centrifugation at 20,000 g for 5 min. […] L-lactate was measured by lactate dehydrogenase (LDH, final 2 U/ml, Sigma) conversion of L-lactate+NAD+(β-Nicotinamide adenine dinucleotide, Sigma) to pyruvate+NADH in Glycine Buffer solution (final concentration Glycine 0.2M, Hydrazine 0.17M to destroy pyruvate allowing reaction to run to complete oxidation of lactate, Chloroform 0.0125%, Sigma). Reaction was incubated at 37° C. for 30 minute (without CO2), L-lactate standards and samples were read at NADH specific absorbance 340 nm (Infinite 200 PRO, Tecan).

[2] = tested on: DCs; assay: Extracellular acidification rate (ECAR), Seahorse XFe24 flux analysis of DCs; type: cell-based, Murine
Description: Dendritic Cell Conditioning: DCs were treated with Wnt3a (100 ng/mL), Wnt5a (200 ng/mL), LPS (1 μg/mL), 1-MT (1 mM), 2DG (1 mM), or ETO (100 μM), 2-DG(2-deoxy-d-glucose, 1 mM), Oligomycin (1 μM), succinylacetone (250 μM), or vehicle control either for 24 or 48 hrs prior to their use in both in vitro and in vivo experiments.
Cellular Energy Metabolism Analysis: DC energy metabolism was measured using the XFe24 extracellular flux analyzer (Seahorse Bioscience), with the glycolysis stress test kit and the mitochondrial stress test kit as previously described (Everts et al., 2014, Zhao and Klimecki, 2015). For experiments involving LPS injection, DCs were plated in XFe24 plates (200,000/well in 500p1) and treated with LPS for 48 hours prior to XF analysis. DCs were washed and analyzed in XF media (RPMI without sodium bicarbonate, 10 mM glucose, 1% FBS, 2 mM L-glutamine). ECAR was analyzed in real-time with or without LPS stimulation. For experiments involving BrafV600EPten−/− cell line-derived conditioned media (CM), collected CM was concentrated and desalted with an Amicon Ultra 30K filter according to manufacturer's recommendations (Milipore). Final concentrate was further washed with XF media 3 times, added to DCs immediately prior to OCR analysis. For standard ECAR analysis, XF media (without glucose) was used to wash cells prior to the assay. A final concentration of 10 mM glucose, 1 μM oligomycin, 50 mM 2-DG(sigma) were injected through XFe24 port A-C. For standard OCR analysis, XF media (with 10 mM glucose) was used to wash cells, a final concentration of 1 μM oligomycin, 1.5 μM FCCP (fluoro-carbonyl cyanide phenylhydrazone), 100 nM rotenone, and 1 μM of antimycin-A (Sigma) were injected through XFe24 port A-C.

[3] = tested on: CD8+ T cell proliferation; assay: T cell proliferation assay (CellTrace Violet dilution, OT-1 splenocytes with conditioned DCs); type: cell-based, mice; settings: DCs pre-treated, LPS stimulated
Description: T Cell Proliferation Assay: Splenocytes of OT-1 mice (H-2b) were isolated and stained with CellTrace Violet (ThermoFisher). Preconditioned DCs were loaded with ovalbumin peptide SIINFEKL, and co-cultured at a DC:splenocyte ratio of 40,000:120,000 cells for 72 hrs. CD8+ T cell proliferation was measured by the dilution of Cell Trace Violet dye by flow cytometry.

[4] = tested on: DCs; assay: Flow cytometry of DC surface maturation markers; type: cell-based, Murine
Description: Flow Cytometry: One million cells were stained with 1 μg per million cells of each fluorochrome conjugated antibodies or commercially available dyes according to the standard protocols and analyzed using a FACSCanto II or LSRII (Becton Dickinson).

[5] = tested on: DC IDO; assay: IDO enzymatic assay (kynurenine in conditioned media by HPLC); type: cell-based, Murine; settings: purified DC cultures or tumor-infiltrating DCs
Description: (§1) IDO enzymatic assay and Hemin assay: DC IDO enzyme activity was measured by the conversion of L-tryptophan to L-kynurenine in conditioned media by HPLC (Pallotta et al., 2011). Intracellular hemin was measured using a colorimetric assay kit (BioVision).

[6] = tested on: DCs; assay: PpIX flow cytometry analysis and hemin colorimetric assay; type: cell-based, Murine
Description: as §1
PpIX Analysis: DCs were terminally incubated in the presence of 1 mM δ-aminolevulinic acid (ALA) for 4 hrs. Intracellular PpIX was analyzed by flow cytometry as previously described (Hryhorenko et al., 1998).

[7] = tested on: BMDCs; assay: Metabolomics LC-MS of TCA intermediates; type: cell-based, Murine; settings: rWnt5a stimulation
Description: Metabolomics: Metabolites were extracted from 5×106 BMDCs and subjected to LC-MS analysis according to a previously published protocol (Liu et al., 2014a, Liu et al., 2014b). Metabolites were extracted from 5×106 BMDCs from each experimental group (3 mice per group), washed with ice cold PBS, and lysed in 80% (v/v) methanol on dry ice. Cell lysates were frozen at −80° C. for 15 minutes to disrupt cell membrane and quench enzymatic activity. Samples were then thawed on ice, vortexed rigorously to extract metabolites, and then centrifuged at 20,000 g at 4° C. to precipitate proteins and cell debris. Metabolite extracts were then dried using a speed vacuum and subjected to LC-MS analysis (Liu et al., 2014a, Liu et al., 2014b). Data collected from LC-Q exactive MS is processed on Sieve 2.0 (Thermo). For metabolite analysis, theoretical m/z and retention time of 263 known metabolites were used for positive mode, and 197 metabolites were used for negative mode. Data containing detected m/z and relative intensity of different samples were obtained.

B1: Wnt5a: Recombinant Human/Mouse Wnt5a Protein (R&D Systems) (protein, UniProt P41221 62-380, looked up)
Protein Wnt-5a: IIGAQPLCSQLAGLSQGQKKLCHLYQDHMQYIGEGAKTGIKECQYQFRHRRWNCSTVDNTSVFGRVMQIGSRETAFTYAVSAAGVVNAMSRACREGELSTCGCSRAARPKDLPRDWLWGGCGDNIDYGYRFAKEFVDARERERIHAKGSYESARILMNLHNNEAGRRTVYNLADVACKCHGVSGSCSLKTCWLQLADFRKVGDALKEKYDSAAAMRLNSRGKLVQVNSRFNSPTTQDLVYIDPSPDYCVRNESTGSLGTQGRLCNKTSEGMDGCELMCCGRGYDQFKTVQTERCHCKFHWCCYVKCKKCTEIVDQFVCK
lactate production [1]: suppresses lactate production | LPS-induced glycolytic surge (ECAR) ([2]; DCs pre-treated): suppressed the lipopolysaccharide (LPS)-induced glycolytic surge | glycolysis (ECAR) acutely after stimulation ([2]; within 90 min of stimulation): failed to impact glycolysis | LPS-induced DC-mediated antigen-specific T cell proliferation [3]: suppresses LPS-induced DC-mediated antigen-specific T cell proliferation | DC surface maturation markers / co-stimulatory receptors [4]: absence of any alterations in DC surface maturation markers | DC IDO enzymatic activity (kynurenine) [5]: promoted DC IDO enzymatic activity | DC concentrations of PpIX and hemin [6]: enhanced DC concentrations of the PpIX prosthetic group and its downstream degradation product, hemin | TCA intermediate metabolites [7]: increased quantities of many TCA intermediates but a decrease in α-ketoglutarate
